Five molecules from publication PMC10755698 can be followed below.

Like-named read-outs stand apart in the source and are kept apart here.

Common to all, as to assay: native MS
In series [1] the target is T1, Lassa virus nucleoprotein NP (wild type) (Lassa virus, AV strain, UniProt Q9DQX7).
In series [2] the target is T1, Lassa virus nucleoprotein NP (wild type). This is another data set of the same source.
For series [3] the target is unchanged. This is another data set of the same source.

ACACAAAGACCC (ssRNA) [12 nt RNA]: in series [1], the binding result is recorded as “binds”.
Regarding UAGGAAUCU (ssRNA) [9 nt RNA], the binding result in series [1] is reported as “binds”.
For the molecule CGGACACACAAAAAGAAA (ssRNA) [18 nt RNA], the binding result in series [2] is on record as “binds”.
As to ACCAACACACCAACAACAACCUGUGCG (ssRNA) [27 nt RNA], the binding result in series [3] is recorded as “binds”.
Same read-out and setting: then GCCUAGGAUCCACUGUGCGUGUUGU (ssRNA) [25 nt RNA], with “binds”.
